Reference: publication PMC5673899, “Structural basis for receptor recognition of pollen tube attraction peptides” (Nature Communications, 2017)
“Also recorded” adds a separate entry of the source.

Tests used:
MIK2^LRR = test: Gel filtration assay with MIK2^LRR; assay type: binding, Arabidopsis; details: 4 °C 30 min, 10 mM Bis-Tris pH 6.0, 100 mM NaCl
Excerpt: (§1) The genes of AtPRK3 ^LRR (residues 1–241), AtPRK4 ^LRR (residues 1–277), AtPRK5 ^LRR (residues 1–279), AtPRK6 ^LRR (residues 1–262), MIK1 ^LRR (residues 1–633), MIK2 ^LRR (residues 1–707) were amplified from Arabidopsis cDNA library by PCR and cloned into pFastBac-1 vector with a C-terminal 6 × His-tag. Their identities were confirmed by sequencing. The mature form of AtLURE1.1 (residues 20–94), AtLURE1.2 (residues 20–90), AtLURE1.3 (residues 21–91), and AtLURE1.4 (residues 20–90) were cloned into pFastBac-1 vector, with a modified N-terminal hemolin signal peptide and 6 × His-SUMO tag. Point mutation constructs were generated by QuickChange Site-Directed Mutagenesis Kit (Strategene). All the proteins were expressed using the Bac-to-Bac baculovirus expression system (Invitrogen) in High Five cells at 22 °C. One liter of High Five cells (2.0 × 10^6 cells mL^−1) cultured in the medium from Expression Systems was infected with 25 ml recombinant baculovirus and the media was collected after 72 h of infection. Secreted LRR proteins were purified using Ni-NTA (Novagen) and size-exclusion chromatography (Hiload 200, GE Healthcare) in buffer containing 10 mM Bis-Tris pH 6.0 and 100 mM NaCl. The His-SUMO tag of the AtLURE proteins was removed by Prescission Protease at 4 °C overnight in buffer containing 25 mM Tris pH 8.0 and 150 mM NaCl. […]

AtPRK6^LRR D234A = test: In vitro pull-down with AtPRK6^LRR mutant D234A; assay type: binding, Arabidopsis thaliana; details: wild-type AtLURE1.2
Excerpt: as §1, with “NaCl.” for “NaCl. The His-SUMO tag of the AtLURE proteins was removed by Prescission Protease at 4 °C overnight in buffer containing 25 mM Tris pH 8.0 and 150 mM NaCl.”
The purified His-tagged ectodomains of AtPRK proteins and MIK1, 2 were used to pull-down the AtLURE1.2 peptide. […] All the eluted samples were analyzed by SDS-PAGE and visualized by Coomassie blue staining. […]

[1] = tested on: semi-in-vivo pollen tubes (wild type); test: AtLURE-responsive wavy assay, wild-type pollen tubes; assay type: cell-based, Arabidopsis; details: 250 nM peptide in solid pollen germination medium
Protocol: (§2) Attraction activities of mutant AtLURE1.2 peptides were examined for semi-in-vivo pollen tubes growing through cut, pollinated pistils by gelatin-beads assay and wavy assay, [20]. For the gelatin-beads assay, pollen tubes were grown on solid pollen germination medium poured into a mold made with 1-mm thick silicone rubber and cover glasses. After hand-pollination, the topside cover glass was removed and the medium was covered with hydrated silicone oil (KF-96–100CS; Shin-Etsu). Attraction of pollen tubes toward the peptide was evaluated using AtLURE1 peptide containing gelatine beads under an inverted microscope (IX71, Olympus) equipped with a micro-manipulator (Narishige). For the AtLURE1-responsive wavy assay, the purified AtLURE1.2 peptide was added to solid pollen germination medium, which was melted at 70 °C and then cooled to a certain degree. The mixture was mixed by vortexing and poured into the mold. Pollen tubes of each genotype were grown through cut styles, as mentioned above. Each peptide (25 μM in 10 mM Bis-Tris (pH 6.0) and 100 mM NaCl) was diluted to 250 nM by cultivation medium in both assays. […]
(§3) pollen tubes. Fluorescence is from mRuby2 fused to the C-terminal of PRK6 receptors, showing that all of mutant PRK6 receptors localize normally to the plasma membrane of the pollen tube tip. […]

[2] = tested on: prk6 pollen tubes transformed with PRK6 N239A; test: Wavy assay, prk6 pollen tubes transformed with N239A PRK6; assay type: cell-based, Arabidopsis; details: 250 nM wild-type AtLURE1.2 in medium
Protocol: as §2, §3

B1: AtLURE1.2: mature form of AtLURE1.2 (residues 20–90), defensin-like cysteine-rich peptide expressed in insect cells (protein)
chain: TLINGSSDEERTYSFSPTTSPFDPRSLNQELKIGRIGYCFDCARACMRRGKYIRTCSFERKLCRCSISDIK
modifications: left off: His6, N-terminal, cleaved | SUMO, N-terminal, cleaved
notes: mature form of AtLURE1.2 (residues 20–90), defensin-like cysteine-rich peptide expressed in insect cells
interaction in gel filtration (MIK2^LRR): none of the purified AtPRK3^LRR, MIK1^LRR or MIK2^LRR proteins showed detectable interaction
interaction in pull-down assay (AtPRK6^LRR D234A): greatly compromised; also recorded: significantly compromised
wavy pollen tube response [1]: caused pollen tube wavy response
wavy and branched pollen tube behavior [2]: severe wavy and branched behavior; also recorded: comparable reactivity to the wild-type PRK6
